For 15 molecules, exchange rate vs Pos peptide results are on record in US20200222478A1.

For one assay, the target named is HLA-A*24:02 (human). As to the kind of experiment: UV peptide exchange + HLA class I ELISA. The following applies: remark: other sources report otherwise.
As to HVPKILSGK (here or on the partner: biotinylated heavy chain) [P58 9-mer peptide (AR (Q903H))], the exchange rate vs Pos peptide came to 0.2%.
Still for that read-out and setting: in the case of LMAQRLLLR (here or on the partner: biotinylated heavy chain) [P97 9-mer peptide (FOXRED2-TXN2 fusion)] it was 0.1%.
Still for that read-out and setting: in the case of LLERNSFEV (here or on the partner: biotinylated heavy chain) [P73 9-mer peptide (TP53 (G266E))] it was 0.5%.
The same measure, in the same setting: next, RAVRRMNTF (here or on the partner: biotinylated heavy chain) [P17 9-mer peptide (MSMB-NOCA4 fusion)]: 0.1%.
For the molecule YLRRQKRLK (here or on the partner: biotinylated heavy chain) [P60 9-mer peptide (FOXA1.p.F266L)], the exchange rate vs Pos peptide was 0.9%.
Still for that read-out and setting: next, CPMSRLRLA (here or on the partner: biotinylated heavy chain) [P46 9-mer peptide (TP53 (R213D) frameshift)]: -0.4%; IPVLTRWPL (here or on the partner: biotinylated heavy chain) [P19 9-mer peptide (TMEM222-LOC644961 fusion)]: 0.1%; RAKCKFSIL (here or on the partner: biotinylated heavy chain) [P56 9-mer peptide (SPOP(F102C))]: 0.5%.
Same read-out and setting: in the case of FLFLLLPLS (here or on the partner: biotinylated heavy chain) [P87 9-mer peptide (AR-Intron splice variant)] it was 0.2%; in that of IVWWCPMSR (here or on the partner: biotinylated heavy chain) [P98 9-mer peptide (TP53 (R213D) frameshift)], -0.1%; in that of YCMAAPMGL (here or on the partner: biotinylated heavy chain) [P76 9-mer peptide (AR-V3 splice variant)], -0.5%.
With RVGNCKHLK (here or on the partner: biotinylated heavy chain) [P82 9-mer peptide (AR-V7 splice variant)], the exchange rate vs Pos peptide was -0.1%.
The same measure, in the same setting: next, YQFTFDLLI (here or on the partner: biotinylated heavy chain) [P48 9-mer peptide (AR.p.H875Y)]: 0.1%; QLIAMDSAI (here or on the partner: biotinylated heavy chain) [P22 9-mer peptide (SLC45A3-ELK4 fusion)]: 0%; CYLGRQKRF (here or on the partner: biotinylated heavy chain) [P61 9-mer peptide (FOXA1.p.R261G)]: 90.3%.

In another assay the target is HLA-A*03:01 (human). Description: UV peptide exchange + HLA class I ELISA. The following applies: remark: other sources report otherwise. A general note: In an ELISA, binding on a coated surface is turned into a signal by an enzyme label.
As to HVPKILSGK (here or on the partner: biotinylated heavy chain) [P58 9-mer peptide (AR (Q903H))], the exchange rate vs Pos peptide worked out at 32.5%.
The same measure, in the same setting: next, LMAQRLLLR (here or on the partner: biotinylated heavy chain) [P97 9-mer peptide (FOXRED2-TXN2 fusion)]: 39%.
As for LLERNSFEV (here or on the partner: biotinylated heavy chain) [P73 9-mer peptide (TP53 (G266E))], the exchange rate vs Pos peptide stood at 3.5%.
In the case of RAVRRMNTF (here or on the partner: biotinylated heavy chain) [P17 9-mer peptide (MSMB-NOCA4 fusion)], the exchange rate vs Pos peptide came to 3.8%.
On the same count and under the same terms, next, YLRRQKRLK (here or on the partner: biotinylated heavy chain) [P60 9-mer peptide (FOXA1.p.F266L)]: 36.6%; CPMSRLRLA (here or on the partner: biotinylated heavy chain) [P46 9-mer peptide (TP53 (R213D) frameshift)]: 10.3%; IPVLTRWPL (here or on the partner: biotinylated heavy chain) [P19 9-mer peptide (TMEM222-LOC644961 fusion)]: 4.1%.
On the same count and under the same terms, next, RAKCKFSIL (here or on the partner: biotinylated heavy chain) [P56 9-mer peptide (SPOP(F102C))]: 6.8%; FLFLLLPLS (here or on the partner: biotinylated heavy chain) [P87 9-mer peptide (AR-Intron splice variant)]: 2.4%; IVWWCPMSR (here or on the partner: biotinylated heavy chain) [P98 9-mer peptide (TP53 (R213D) frameshift)]: 51.1%.
Still for that read-out and setting: next, YCMAAPMGL (here or on the partner: biotinylated heavy chain) [P76 9-mer peptide (AR-V3 splice variant)]: 6%; RVGNCKHLK (here or on the partner: biotinylated heavy chain) [P82 9-mer peptide (AR-V7 splice variant)]: 58.1%.
On to YQFTFDLLI (here or on the partner: biotinylated heavy chain) [P48 9-mer peptide (AR.p.H875Y)], for which the exchange rate vs Pos peptide is 4.4%.
On the same count and under the same terms, in the case of QLIAMDSAI (here or on the partner: biotinylated heavy chain) [P22 9-mer peptide (SLC45A3-ELK4 fusion)] it was 4.8%.

A further assay deals with HLA-A*02:01 (human). As to the kind of experiment: UV peptide exchange + HLA class I ELISA. The note with it: remark: other sources report otherwise.
Regarding HVPKILSGK (here or on the partner: biotinylated heavy chain) [P58 9-mer peptide (AR (Q903H))], the exchange rate vs Pos peptide turned out to be 11.8%.
In the case of LMAQRLLLR (here or on the partner: biotinylated heavy chain) [P97 9-mer peptide (FOXRED2-TXN2 fusion)], the exchange rate vs Pos peptide worked out at 4.6%.
Same read-out and setting: next, LLERNSFEV (here or on the partner: biotinylated heavy chain) [P73 9-mer peptide (TP53 (G266E))]: 89.2%; YLRRQKRLK (here or on the partner: biotinylated heavy chain) [P60 9-mer peptide (FOXA1.p.F266L)]: 7.9%.
Still for that read-out and setting: next, CPMSRLRLA (here or on the partner: biotinylated heavy chain) [P46 9-mer peptide (TP53 (R213D) frameshift)]: 14.4%; IPVLTRWPL (here or on the partner: biotinylated heavy chain) [P19 9-mer peptide (TMEM222-LOC644961 fusion)]: 8.2%.
On the same count and under the same terms, next, RAKCKFSIL (here or on the partner: biotinylated heavy chain) [P56 9-mer peptide (SPOP(F102C))]: 8.4%.
FLFLLLPLS (here or on the partner: biotinylated heavy chain) [P87 9-mer peptide (AR-Intron splice variant)]: the exchange rate vs Pos peptide stood at 64%.
Consider IVWWCPMSR (here or on the partner: biotinylated heavy chain) [P98 9-mer peptide (TP53 (R213D) frameshift)], for which the exchange rate vs Pos peptide was found to be 7.9%.
The same measure, in the same setting: next, YCMAAPMGL (here or on the partner: biotinylated heavy chain) [P76 9-mer peptide (AR-V3 splice variant)]: 85.9%; RVGNCKHLK (here or on the partner: biotinylated heavy chain) [P82 9-mer peptide (AR-V7 splice variant)]: 6.3%; YQFTFDLLI (here or on the partner: biotinylated heavy chain) [P48 9-mer peptide (AR.p.H875Y)]: 99.3%.
The same measure, in the same setting: next, QLIAMDSAI (here or on the partner: biotinylated heavy chain) [P22 9-mer peptide (SLC45A3-ELK4 fusion)]: 46.9%.
The same measure, in the same setting: in the case of CYLGRQKRF (here or on the partner: biotinylated heavy chain) [P61 9-mer peptide (FOXA1.p.R261G)] it was 5.8%.

A further assay concerns the target HLA-A*01:01 (human). Description: UV peptide exchange + HLA class I ELISA. The note with it: remark: other sources report otherwise.
Turning to HVPKILSGK (here or on the partner: biotinylated heavy chain) [P58 9-mer peptide (AR (Q903H))], the exchange rate vs Pos peptide stood at 2.5%.
Same read-out and setting: in the case of LMAQRLLLR (here or on the partner: biotinylated heavy chain) [P97 9-mer peptide (FOXRED2-TXN2 fusion)] it was 2.5%; in that of RAVRRMNTF (here or on the partner: biotinylated heavy chain) [P17 9-mer peptide (MSMB-NOCA4 fusion)], 4.9%; in that of YLRRQKRLK (here or on the partner: biotinylated heavy chain) [P60 9-mer peptide (FOXA1.p.F266L)], 3.1%.
Still for that read-out and setting: in the case of CPMSRLRLA (here or on the partner: biotinylated heavy chain) [P46 9-mer peptide (TP53 (R213D) frameshift)] it was 2.4%.
Still for that read-out and setting: next, IPVLTRWPL (here or on the partner: biotinylated heavy chain) [P19 9-mer peptide (TMEM222-LOC644961 fusion)]: 5.2%; RAKCKFSIL (here or on the partner: biotinylated heavy chain) [P56 9-mer peptide (SPOP(F102C))]: 2.6%; FLFLLLPLS (here or on the partner: biotinylated heavy chain) [P87 9-mer peptide (AR-Intron splice variant)]: 1.1%.
For IVWWCPMSR (here or on the partner: biotinylated heavy chain) [P98 9-mer peptide (TP53 (R213D) frameshift)], the exchange rate vs Pos peptide came to 2.5%.
Consider YCMAAPMGL (here or on the partner: biotinylated heavy chain) [P76 9-mer peptide (AR-V3 splice variant)], for which the exchange rate vs Pos peptide was 0.1%.
Same read-out and setting: next, RVGNCKHLK (here or on the partner: biotinylated heavy chain) [P82 9-mer peptide (AR-V7 splice variant)]: 1.5%; YQFTFDLLI (here or on the partner: biotinylated heavy chain) [P48 9-mer peptide (AR.p.H875Y)]: 4.3%.
Same read-out and setting: next, QLIAMDSAI (here or on the partner: biotinylated heavy chain) [P22 9-mer peptide (SLC45A3-ELK4 fusion)]: 4.4%; CYLGRQKRF (here or on the partner: biotinylated heavy chain) [P61 9-mer peptide (FOXA1.p.R261G)]: 1.7%.

The target in another assay is HLA-B*08:01 (human). Description: UV peptide exchange + HLA class I ELISA. The following applies: remark: other sources report otherwise.
As to HVPKILSGK (here or on the partner: biotinylated heavy chain) [P58 9-mer peptide (AR (Q903H))], the exchange rate vs Pos peptide was 5.3%.
On the same count and under the same terms, in the case of LMAQRLLLR (here or on the partner: biotinylated heavy chain) [P97 9-mer peptide (FOXRED2-TXN2 fusion)] it was 2.7%; in that of LLERNSFEV (here or on the partner: biotinylated heavy chain) [P73 9-mer peptide (TP53 (G266E))], 2.6%; in that of YLRRQKRLK (here or on the partner: biotinylated heavy chain) [P60 9-mer peptide (FOXA1.p.F266L)], 10.2%.
With CPMSRLRLA (here or on the partner: biotinylated heavy chain) [P46 9-mer peptide (TP53 (R213D) frameshift)], the exchange rate vs Pos peptide turned out to be 14.5%.
Still for that read-out and setting: next, IPVLTRWPL (here or on the partner: biotinylated heavy chain) [P19 9-mer peptide (TMEM222-LOC644961 fusion)]: 14.5%; RAKCKFSIL (here or on the partner: biotinylated heavy chain) [P56 9-mer peptide (SPOP(F102C))]: 38%; FLFLLLPLS (here or on the partner: biotinylated heavy chain) [P87 9-mer peptide (AR-Intron splice variant)]: 3.1%.
Same read-out and setting: next, IVWWCPMSR (here or on the partner: biotinylated heavy chain) [P98 9-mer peptide (TP53 (R213D) frameshift)]: 2.4%; RVGNCKHLK (here or on the partner: biotinylated heavy chain) [P82 9-mer peptide (AR-V7 splice variant)]: 1.4%.
For the molecule QLIAMDSAI (here or on the partner: biotinylated heavy chain) [P22 9-mer peptide (SLC45A3-ELK4 fusion)], the exchange rate vs Pos peptide was found to be 3.9%.
For the molecule CYLGRQKRF (here or on the partner: biotinylated heavy chain) [P61 9-mer peptide (FOXA1.p.R261G)], the exchange rate vs Pos peptide came out at 3.6%.

Another assay addresses HLA-B*07:02 (human). As to the kind of experiment: UV peptide exchange + HLA class I ELISA. The following applies: remark: other sources report otherwise.
For LMAQRLLLR (here or on the partner: biotinylated heavy chain) [P97 9-mer peptide (FOXRED2-TXN2 fusion)], the exchange rate vs Pos peptide amounted to 7%.
Consider LLERNSFEV (here or on the partner: biotinylated heavy chain) [P73 9-mer peptide (TP53 (G266E))], for which the exchange rate vs Pos peptide came to 8.7%.
On the same count and under the same terms, next, RAVRRMNTF (here or on the partner: biotinylated heavy chain) [P17 9-mer peptide (MSMB-NOCA4 fusion)]: 38.7%.
On the same count and under the same terms, next, YLRRQKRLK (here or on the partner: biotinylated heavy chain) [P60 9-mer peptide (FOXA1.p.F266L)]: 6.1%; CPMSRLRLA (here or on the partner: biotinylated heavy chain) [P46 9-mer peptide (TP53 (R213D) frameshift)]: 64.8%.
Still for that read-out and setting: next, IPVLTRWPL (here or on the partner: biotinylated heavy chain) [P19 9-mer peptide (TMEM222-LOC644961 fusion)]: 91.3%; RAKCKFSIL (here or on the partner: biotinylated heavy chain) [P56 9-mer peptide (SPOP(F102C))]: 82.5%; FLFLLLPLS (here or on the partner: biotinylated heavy chain) [P87 9-mer peptide (AR-Intron splice variant)]: 5%.
For IVWWCPMSR (here or on the partner: biotinylated heavy chain) [P98 9-mer peptide (TP53 (R213D) frameshift)], the exchange rate vs Pos peptide came to 6.7%.
The same measure, in the same setting: next, YCMAAPMGL (here or on the partner: biotinylated heavy chain) [P76 9-mer peptide (AR-V3 splice variant)]: 91.5%.
The same measure, in the same setting: in the case of RVGNCKHLK (here or on the partner: biotinylated heavy chain) [P82 9-mer peptide (AR-V7 splice variant)] it was 12.9%; in that of YQFTFDLLI (here or on the partner: biotinylated heavy chain) [P48 9-mer peptide (AR.p.H875Y)], 12.8%.
Still for that read-out and setting: in the case of QLIAMDSAI (here or on the partner: biotinylated heavy chain) [P22 9-mer peptide (SLC45A3-ELK4 fusion)] it was 8.3%.
